# Laboratory results published in patent US20120114652A1 (AbbVie / Abbott, published 2012).
# T1: PAI-3 (UniProt P05154 26-406, limits assumed)
# T1 sequence (looked up): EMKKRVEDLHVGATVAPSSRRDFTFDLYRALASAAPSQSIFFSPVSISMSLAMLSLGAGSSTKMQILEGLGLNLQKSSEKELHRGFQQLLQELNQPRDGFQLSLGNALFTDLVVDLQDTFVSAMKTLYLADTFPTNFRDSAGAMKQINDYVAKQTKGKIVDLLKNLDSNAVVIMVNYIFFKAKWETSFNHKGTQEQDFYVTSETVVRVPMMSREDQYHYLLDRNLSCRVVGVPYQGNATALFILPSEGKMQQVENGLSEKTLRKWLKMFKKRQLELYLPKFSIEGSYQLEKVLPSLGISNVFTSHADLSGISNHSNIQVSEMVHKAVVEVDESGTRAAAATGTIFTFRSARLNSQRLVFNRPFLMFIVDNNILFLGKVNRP
# T2: α2-antiplasmin (UniProt P08697 40-491, limits assumed)
# T2 sequence (looked up): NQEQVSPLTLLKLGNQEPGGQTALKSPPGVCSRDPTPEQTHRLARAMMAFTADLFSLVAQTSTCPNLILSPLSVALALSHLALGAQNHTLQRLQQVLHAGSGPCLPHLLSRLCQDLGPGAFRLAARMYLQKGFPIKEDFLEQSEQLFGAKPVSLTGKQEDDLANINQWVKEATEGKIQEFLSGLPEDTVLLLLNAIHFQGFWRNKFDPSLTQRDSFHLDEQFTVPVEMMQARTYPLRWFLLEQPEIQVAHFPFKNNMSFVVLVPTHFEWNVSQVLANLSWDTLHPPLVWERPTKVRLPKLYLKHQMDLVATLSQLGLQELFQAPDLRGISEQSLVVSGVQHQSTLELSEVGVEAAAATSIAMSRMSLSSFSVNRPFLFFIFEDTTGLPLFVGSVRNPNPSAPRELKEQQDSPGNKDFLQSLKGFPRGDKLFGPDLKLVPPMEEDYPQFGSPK
# How the values were obtained:
# Assay in all cases: competition ELISA (DELFIA): PICK167_A01 IgG1 coated on the plate, biotinylated human PAI-1, titration of the unlabelled test antigen
# [1] = target: antithrombin III (UniProt P01008 33-464)
# [2] = target: T1, PAI-3
# [3] = target: PAI-2 (UniProt P05120 1-415, limits assumed)
# [4] = target: T2, α2-antiplasmin
# Sequence of antithrombin III (P01008 33-464 limits assumed): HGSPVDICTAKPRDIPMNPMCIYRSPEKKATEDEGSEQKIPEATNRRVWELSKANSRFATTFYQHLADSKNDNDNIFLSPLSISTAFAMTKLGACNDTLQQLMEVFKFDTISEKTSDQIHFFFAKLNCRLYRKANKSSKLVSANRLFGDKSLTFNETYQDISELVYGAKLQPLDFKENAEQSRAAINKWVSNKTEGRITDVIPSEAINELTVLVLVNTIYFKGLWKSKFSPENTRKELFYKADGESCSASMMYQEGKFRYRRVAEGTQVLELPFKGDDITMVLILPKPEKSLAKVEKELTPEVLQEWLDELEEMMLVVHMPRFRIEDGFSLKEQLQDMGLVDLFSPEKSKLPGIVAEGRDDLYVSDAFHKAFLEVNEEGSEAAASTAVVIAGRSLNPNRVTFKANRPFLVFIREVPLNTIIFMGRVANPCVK
# Sequence of PAI-2 (P05120 whole entry): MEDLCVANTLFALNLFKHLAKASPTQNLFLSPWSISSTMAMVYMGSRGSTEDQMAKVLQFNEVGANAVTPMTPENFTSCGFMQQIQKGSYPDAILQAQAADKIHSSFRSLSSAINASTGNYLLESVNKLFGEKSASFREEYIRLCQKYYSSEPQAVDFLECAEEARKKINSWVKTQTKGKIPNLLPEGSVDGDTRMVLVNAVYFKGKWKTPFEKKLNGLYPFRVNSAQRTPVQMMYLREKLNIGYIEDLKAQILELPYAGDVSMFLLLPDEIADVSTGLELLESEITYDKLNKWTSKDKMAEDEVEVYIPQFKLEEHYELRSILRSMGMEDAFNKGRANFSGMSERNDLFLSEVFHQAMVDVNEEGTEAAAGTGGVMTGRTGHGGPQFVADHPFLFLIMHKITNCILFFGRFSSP
binder,measurement,setting,value
"PICK167_A01 IgG1 (antibody, V domains shown) VH: QVQLQQSGAEVKKPGSSVKVSCKASGGTFSSYAISWVRQAPGQRLEWMGGIIPTFGTANYAQKFQGRVTITADESTSTAYMELSGLRSEDTAVYYCARERRQWLEGHFDYWGRGTPVTVSS VL: DIQMTQSPSFLSASIGDRVTITCRASEGIYHNLAWYQQKPGKAPKLLIYKASSLASGAPSRFSGSRSGTDFTLTISSLQPDDFATYYCQQYSNYPLTFGGGTKLEIKR",binding result,[1],no binding (tested: log M about -6.3 (about 5e-7 M))
same,binding result,[2],no binding (tested: log M about -6.3 (about 5e-7 M))
same,binding result,[3],no binding (tested: log M about -6.3 (about 5e-7 M))
same,binding result,[4],no binding (tested: log M about -6.3 (about 5e-7 M))
